The text below walks through data of PMC4485828 (Oncoimmunology, 2015).

Data set [1] deals with the molecule itself. In words: SEC.
Data set [2] is described as follows: SEC. (In general: Size exclusion chromatography separates by hydrodynamic size, large species first.)

B1: GD2xCD3-HDD bispecific antibody dimer (GD2xCD3 tsc-BsAb with the HNF1α dimerization domain at the C-terminus) (bispecific antibody)
chain: QVQLQQSGPELVKPGASVKISCKTSGYKFTEYTMHWVKQSHGKCLEWIGGINPNNGGTNYNQKFKGKATLTVDKSSSTAYMELRSLTSEDSAVYYCARDTTVPYAYWGQGTTVTVSSGGGGSGGGGSGGGGSDIELTQSPAIMSASPGEKVTMTCSASSSISYMHWYQQKPGTSPKRWIYDTSKLASSVPARFSGSGSGTSYSLTISSMEAEDAATYYCHQRSSYPLTFGCGTKLEIKRASTKGPGGGGSGGGGSGGGGSQVQLVQSGGGVVQPGRSLRLSCKASGYTFTRYTMHWVRQAPGKGLEWIGYINPSRGYTNYNQKFKDRFTISRDNSKNTAFLQMDSLRPEDTGVYFCARYYDDHYCLDYWGQGTPVTVSSGGGGSGGGGSGGGGSDIQMTQSPSSLSASVGDRVTITCSASSSVSYMNWYQQTPGKAPKRWIYDTSKLASGVPSRFSGSGSGTDYTFTISSLQPEDIATYYCQQWSSNPFTFGQGTKLQITRTPLGDTTHTSGMVSKLSQLQTELLAALLESGLSKEALIQALGEGSGGAP
On to B1, for which the “stoichiometry N” value in “SEC [1]” stood at 2. In addition, the “percent dimeric (purity by HPLC-SEC)” value in the data set “SEC [2]” is 97%.

One may read the stoichiometry N as the number of molecules, sites or subunits per partner or assembly.
